Test results as given in patent US11584772B2, “N4-modified cytidine nucleotides and their use” (VILNIUS UNIVERSITY, priority 2017, dated 2023).

Tests used:
[1] = mice; cited from earlier work
[2] = tested on: platelets and neutrophils; settings: cited from earlier work
NLRC4 inflammasome = NLRC4 inflammasome (Homo sapiens, UniProt Q9NPP4); settings: cited from earlier work
[3] = cited from earlier work
[4] = hydrolysis of the amide bond of modified dCTP by purified recombinant proteins (amidase activity); format: biochemical; settings: purified His-tagged recombinant protein, 37° C., various buffer solutions
Description: (§1) Then recombinant proteins (EST, D6 and YqfB) having polyhystidine-tag at the N-terminus were purified by affinity chromatography, enzymatic activities of each protein were estimated.
All three selected proteins are able to hydrolyse the amide bond of N^4-modified cytidine nucleotide. The hydrolysis reaction proceeds in various buffer solutions at 37° C. Depending on the concentration of purified protein enzymatic reaction lasts from several minutes to several hours. […] Moreover, these proteins are capable of hydrolysing not only the amide bond of modified dCTP but also the amide bond of modified cytidine.

[5] = esterase activity of purified recombinant proteins; format: biochemical; settings: purified His-tagged recombinant protein
Text: as §1

Sequence of NLRC4 inflammasome (Q9NPP4 whole entry): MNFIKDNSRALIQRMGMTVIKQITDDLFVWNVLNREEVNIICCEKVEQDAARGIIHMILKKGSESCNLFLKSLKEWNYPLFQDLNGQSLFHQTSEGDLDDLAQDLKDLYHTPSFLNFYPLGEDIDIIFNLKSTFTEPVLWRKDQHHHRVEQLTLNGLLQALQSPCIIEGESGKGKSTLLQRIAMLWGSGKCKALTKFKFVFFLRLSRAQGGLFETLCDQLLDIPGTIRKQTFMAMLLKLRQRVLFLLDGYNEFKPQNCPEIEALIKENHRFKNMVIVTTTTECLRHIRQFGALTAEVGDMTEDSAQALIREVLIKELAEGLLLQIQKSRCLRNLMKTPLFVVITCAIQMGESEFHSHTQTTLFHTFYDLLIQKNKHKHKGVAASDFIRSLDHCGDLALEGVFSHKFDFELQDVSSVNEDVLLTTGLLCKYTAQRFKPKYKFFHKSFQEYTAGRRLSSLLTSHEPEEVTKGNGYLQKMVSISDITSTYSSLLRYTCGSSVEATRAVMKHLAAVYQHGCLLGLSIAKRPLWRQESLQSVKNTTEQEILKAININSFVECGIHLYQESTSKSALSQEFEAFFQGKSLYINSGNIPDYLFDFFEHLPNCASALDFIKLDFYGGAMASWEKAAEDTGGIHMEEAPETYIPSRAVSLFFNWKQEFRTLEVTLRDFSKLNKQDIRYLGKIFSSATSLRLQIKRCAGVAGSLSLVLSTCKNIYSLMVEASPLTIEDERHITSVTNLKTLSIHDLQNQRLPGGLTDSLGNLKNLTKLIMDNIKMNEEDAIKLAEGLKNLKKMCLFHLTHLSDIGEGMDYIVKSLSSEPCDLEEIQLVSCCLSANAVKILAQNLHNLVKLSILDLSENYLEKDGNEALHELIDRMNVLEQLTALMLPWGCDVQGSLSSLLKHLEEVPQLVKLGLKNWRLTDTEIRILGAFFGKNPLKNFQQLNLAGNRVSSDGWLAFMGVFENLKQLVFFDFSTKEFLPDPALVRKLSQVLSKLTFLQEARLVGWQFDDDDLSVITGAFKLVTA

Molecule | blood pressure [1] | activation of platelets and neutrophils [2] | activation of the NLRC4 inflammasome (NLRC4 inflammasome) | production of IL-1μ [3] | hydrolysis of the amide bond of modified dCTP (activity of amidase) [4] | esterase activity [5]
CC(=O)Nc1ccn([C@@H]2O[C@H](CO)[C@@H](O)[C@H]2O)c(=O)n1 [N^4-acetyl-cytidine] | elevates blood pressure in mice | activates platelets and neutrophils | activates the NLRC4 inflammasome | induces the production of IL-1μ | – | –
EST: recombinant protein selected from metagenomic library, polyhystidine-tag at the N-terminus; amidase and esterase (protein, N-terminal His tag; Metagenomic origin, recombinant protein selected from metagenomic library, polyhystidine-tag at the N-terminus; amidase and esterase) MSSLFIGQVFAKTPEVQTSDLTGNTTCSNLVGMVIPADEIGLPTSGATITSATLKIVEDGAIKDAEYCEVLGAIHPVDPTAPDINFQVNLPTNWNKKFLQFGGGYFNGTVRTGLGNPPAGDRKLGKNTPLAQGYVTFGSDSGNSTAPLDASFGMNDEALKNFAGDQLKKTKDVALALANVRYNAVPDQVYFAGGSEGGREGLFIVQNFPDEYDGVISVYPVLNWIPKALKDNRDAQALYKNDGEGWISPEENDLINETVFKACDSLDGVKDGIISNTSECAEKEDKILDTLSESLSEKQIEVIKSFNGPMEFDIQLANDFTTMPGYSQLQGADIGRLFGTRPIPGVPPVVSESVGHVIDEQDALMGVYSDQVIRYKITRNPDFNTLTFDPNEYREEILKASNLLDVTDPNISEFRENGGKLILVHGTEDEMVAPQGTSDYYSKLVNEFGQESLDEFAQYYLVPGFSHGGGNFTMSANLLGALDAWVVNGDVPSNLVAEDQNSATFGRTRPLCEYPTYPQYNGSGDVNSAASFTCLKADKDKDISASDIQKLIEKFEVDGEFANHGTARSLQAHLDILIKLESQERETVDQIVKHTQKFIKLLDNHKKNGKITDHAYNTLKELAESYIKQIK | – | – | – | – | hydrolyse the amide bond of modified dCTP | behave as esterases
YqfB: recombinant protein selected from metagenomic library, polyhystidine-tag at the N-terminus; amidase and esterase (protein, listed as Escherichia coli, N-terminal His tag, recombinant protein selected from metagenomic library, polyhystidine-tag at the N-terminus; amidase and esterase) MQPNDITFFQRFQDDILAGRKTITIRDESESHFKTGDVLRVGRFEDDGYFCTIEVTATSTVTLDTLTEKHAEQENMTLTELKKVIADIYPGQTQFYVIEFKCL | – | – | – | – | hydrolyse the amide bond of modified dCTP | behave as esterases
D6: recombinant protein selected from metagenomic library, polyhystidine-tag at the N-terminus; amidase and esterase (protein, N-terminal His tag; Metagenomic origin, recombinant protein selected from metagenomic library, polyhystidine-tag at the N-terminus; amidase and esterase) MEQLKFQKNWNNKCSCDFFTTIRLKGPKYTVGKELEMRIYKGGVFQNHGMIRVASLRPIQLHQINEWISRLDSGLSPEELRSELFYMYKDKVADVNKVDFYLILCERVKSKPIQNALFSTESTPAHD | – | – | – | – | hydrolyse the amide bond of modified dCTP | behave as esterases
